Laboratory results taken from publication PMC7801617 (2021).
No end group written: not given here.

B1: KANK1 (30–68) peptide (peptide)
peptide: PYFVETPYGFQLDLDFVKYVDDIQKGNTIKKLNIQKRRKC
modifications: BODIPY or Fluorescein dye coupled via the C-terminal cysteine residue
B2: RIAM (4–30) peptide (peptide)
peptide: SEDIDQMFSTLLGEMDLLTQSLGVDTC
modifications: also: BODIPY or Fluorescein dye coupled via C-terminal Cys

Legend:
Test in all cases: FP
[1] = target: talin-1 R7–R8 fragment (residues 1355–1652) with mutation Y1389C (mouse, UniProt P26039 1355-1652, Y1389C)
Chain of talin-1 R7–R8 fragment (residues 1355–1652) with mutation Y1389C (P26039 1355-1652 Y1389C): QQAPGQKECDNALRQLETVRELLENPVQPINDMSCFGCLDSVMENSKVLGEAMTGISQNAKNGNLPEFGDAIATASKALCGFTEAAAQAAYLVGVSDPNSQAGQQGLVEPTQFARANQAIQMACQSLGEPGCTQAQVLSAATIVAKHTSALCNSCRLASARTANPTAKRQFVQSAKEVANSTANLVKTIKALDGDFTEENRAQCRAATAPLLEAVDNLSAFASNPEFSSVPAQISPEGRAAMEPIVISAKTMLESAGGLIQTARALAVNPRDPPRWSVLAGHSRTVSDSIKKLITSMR

[2] = target: talin-1 R7–R8 fragment (residues 1355–1652) with mutation R1368W (mouse, UniProt P26039 1355-1652, R1368W)
Chain of talin-1 R7–R8 fragment (residues 1355–1652) with mutation R1368W (P26039 1355-1652 R1368W): as the sequence (P26039 1355-1652 Y1389C) above, with R14W, C35Y counted along it

[3] = target: T1, talin-1 R7–R8 fragment, wildtype (residues 1355–1652) (mouse, UniProt P26039 1355-1652)
T1 chain: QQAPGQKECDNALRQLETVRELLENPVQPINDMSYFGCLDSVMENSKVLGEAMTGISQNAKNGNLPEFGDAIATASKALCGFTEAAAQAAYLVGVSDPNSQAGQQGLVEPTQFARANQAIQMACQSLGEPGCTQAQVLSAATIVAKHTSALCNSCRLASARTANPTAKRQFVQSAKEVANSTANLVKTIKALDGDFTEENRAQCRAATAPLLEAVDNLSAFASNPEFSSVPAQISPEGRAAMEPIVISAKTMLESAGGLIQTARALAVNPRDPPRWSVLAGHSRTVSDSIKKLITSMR

Row | Binder | Kd [1] [nM] | Kd [2] [nM] | Kd [3] [nM]
1 | B1 | 350 | 390 | 350
2 | B2 | 3600 | 3300 | 3600
